The record followed here is patent publication US20120208238A1.

Experiment [1] has as its target soluble human FcγRIIb-GST (human) (UniProt P31994). Put plainly: SPR (BIAcore 3000), antibody on CM5 chip, soluble dimeric receptor-GST injected, bivalent analyte model.
In experiment [2] the target is soluble human FcγRIIa^R131-GST (human) (UniProt P12318). The description is as above.
Experiment [3] has the same target. Nature of the experiment: SPR; ratio of the Kd for FcγRIIb-GST over that for FcγRIIa-GST.
Experiment [4] has the same target. Put plainly: flow cytometry of E. coli spheroplasts displaying the full length IgG, 20 nM FcγRIIa-GST-Alexa488 in the presence of 100 nM unlabelled FcγRIIb-GST.

Changes are numbered by the printed parent chain. Numbers in names are those of the source.

Chain of soluble human FcγRIIa^R131-GST (human) (P12318 34-217 H167R): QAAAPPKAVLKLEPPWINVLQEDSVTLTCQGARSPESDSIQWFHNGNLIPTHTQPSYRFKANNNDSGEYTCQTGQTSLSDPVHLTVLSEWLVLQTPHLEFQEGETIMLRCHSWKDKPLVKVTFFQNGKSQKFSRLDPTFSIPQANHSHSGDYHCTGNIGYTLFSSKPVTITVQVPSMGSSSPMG
Chain of soluble human FcγRIIb-GST (human) (P31994 43-217): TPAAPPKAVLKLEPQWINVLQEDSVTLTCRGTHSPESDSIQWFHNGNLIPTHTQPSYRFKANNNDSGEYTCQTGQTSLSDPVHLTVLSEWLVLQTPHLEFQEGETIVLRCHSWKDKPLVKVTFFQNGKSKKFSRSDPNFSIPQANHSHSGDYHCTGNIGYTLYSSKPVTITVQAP

B1: aglycosylated Fc1001 trastuzumab (antibody, part only; not given: Fab (trastuzumab), IgG1, not shown: another chain or arm of the molecule)
Fc: DKTHTCPPCPAPELLGGPSVFLFPPKPKDTLMISRTPEVTCVVVDVSPEDPEVKFNWYVDGVEVHNAKTKPREKQYNGAYRVVSVLTVLHQDWLNGKEYKCKVSNKALPAPIEKTISKAKGQPREPQVYTLPPSRDELTKSQVSLTCLVKGFYPSDIAVEWVSNGQPENNYKTTPPVLDSDGSFFLYSKLTVDKSRWQQGNVFSCSVLHEALHNHYTQKSLSLSPGK
modifications: aglycosylated (T299A)
In experiment [1], B1 returned a Kd of 975 nM, a koff of 0.0194 s⁻¹ and a kon of 19900 M⁻¹ s⁻¹. In experiment [2], this molecule came in with a Kd of 102 nM, a koff of 0.00352 s⁻¹ and a kon of 34600 M⁻¹ s⁻¹. For the same molecule, the KD2b/KD2a in experiment [3] came to 9.6. For the same molecule, in experiment [4], the FACS mean value was 409 and the M (mean fluorescence intensity) was 413.

B2: aglycosylated Fc1003 trastuzumab (antibody, part only; not given: Fab (trastuzumab), IgG1, not shown: another chain or arm of the molecule)
Fc: B1 Fc with P48H, K74E, S141N, K172E, V177M
modifications: aglycosylated (T299A)
In experiment [1], B2 returned a Kd of 1380 nM, a koff of 0.00866 s⁻¹ and a kon of 6260 M⁻¹ s⁻¹. Besides, in experiment [2], the Kd turned out to be 389 nM, the dissociation rate constant (koff) is 0.0079 s⁻¹ and the kon worked out at 20300 M⁻¹ s⁻¹. Besides, in experiment [3], the KD2b/KD2a was found to be 3.56. Moreover, the FACS mean value in experiment [4] came out at 277.
